Test results taken from paper PMC11215833.

Target: PybHLH3: Nluc (pear 'Red Zaosu' (P. pyrifolia × P. communis))

“PyMYB107 (co-expressed as competitor) (natural protein)” was tested, and the dual-luciferase assay, LUC/REN ratio of the PyUFGT promoter activated by PyMYB10 with PybHLH3; ratio of PyMYB107:PyMYB10 from 0:1 (0.48) to 1:1 (0.26) (LUC/REN ratio) was 0.26.
